Experimental data taken from US6518061.

Key:
[1] = target: IL-13 receptor (IL-13R) on human tumor cells (human); assay: cell-based or functional assay
[2] = target: IL-13 receptor (IL-13R) on human tumor cells (human); assay: displacement of ^125I-IL-13 from WS-RCC and HL-RCC cells by excess unlabeled IL-13
[3] = target: IL-13 receptor (IL-13R) on human tumor cells (human); assay: ^125I-IL-13 displacement by unlabeled IL-13 on HL-RCC cells, LIGAND/Scatchard analysis
[4] = target: IL-13 receptor (IL-13R) on human tumor cells (human); assay: ^125I-IL-13 displacement by unlabeled IL-13 on MA-RCC cells, LIGAND/Scatchard analysis
[5] = target: IL-13 receptor (IL-13R) on human tumor cells (human); assay: ^125I-IL-13 displacement by unlabeled IL-13 on WS-RCC cells, LIGAND/Scatchard analysis
[6] = target: IL-13 receptor (IL-13R) on human tumor cells (human); assay: ^125I-hIL-13 displacement by unlabeled hIL-13 on SNB-19 glioma cells, LIGAND/Scatchard analysis
[7] = target: IL-13 receptor (IL-13R) on human tumor cells (human); assay: ^125I-hIL-13 displacement by unlabeled hIL-13 on U-251 MG glioma cells, LIGAND/Scatchard analysis
[8] = target: IL-13 receptor (IL-13R) on human tumor cells (human); assay: displacement of [^125I]-IL-13 from HL-RCC cells
[9] = target: IL-13 receptor (IL-13R) on human tumor cells (human); assay: radioligand (0.64 nM) binding to PM-RCC cells, 4 C, 2 h
[10] = target: IL-13 receptor (IL-13R) on human tumor cells (human); assay: ^125I-hIL-13 displacement by unlabeled hIL-13 on A-172 glioma cells, LIGAND/Scatchard analysis
[11] = target: IL-13 receptor (IL-13R) on human tumor cells (human); assay: ^125I-hIL-13 displacement by unlabeled hIL-13 on U-373 MG glioma cells, LIGAND/Scatchard analysis
[12] = target: IL-13 receptor (IL-13R) on human tumor cells (human); assay: ^125I-hIL-13 displacement by unlabeled hIL-13 on T-98G glioma cells, LIGAND/Scatchard analysis
[13] = target: IL-13 receptor (IL-13R) on human tumor cells (human); assay: ^125I-IL-13 displacement by unlabeled IL-13 on PM-RCC cells, LIGAND/Scatchard analysis

Chain of IL-13 receptor (IL-13R) on human tumor cells (human) (Q14627 whole entry): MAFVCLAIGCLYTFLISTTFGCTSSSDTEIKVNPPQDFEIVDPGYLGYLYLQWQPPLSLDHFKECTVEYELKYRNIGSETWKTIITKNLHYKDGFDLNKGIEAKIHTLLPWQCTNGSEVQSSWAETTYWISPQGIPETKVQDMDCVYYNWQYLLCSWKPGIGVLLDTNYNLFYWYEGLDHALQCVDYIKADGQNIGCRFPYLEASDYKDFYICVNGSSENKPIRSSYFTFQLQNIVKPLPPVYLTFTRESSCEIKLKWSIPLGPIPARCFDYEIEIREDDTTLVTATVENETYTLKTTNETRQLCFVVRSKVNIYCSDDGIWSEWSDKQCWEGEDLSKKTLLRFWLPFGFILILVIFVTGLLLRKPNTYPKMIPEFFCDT

Q: With “hIL-13-PE4E (from UniProt P35225 33-146; P11439 26-638)” as the substance, how does the IC50, cytotoxicity on several glioma cell lines [1] read?
A: Its IC50, cytotoxicity on several glioma cell lines is < 0.1 ng/mL.

Q: “recombinant human interleukin 13 (IL-13) (from UniProt P35225 33-146) (ligand)” was tested. Which % displacement of total binding [2] did it give?
A: The % displacement of total binding was 85%.

Q: What about the Kd [3] of the same substance?
A: Its Kd is 3.1 nM.

Q: And the Kd [4]?
A: The Kd was 0.128 nM.

Q: And the Kd [5]?
A: Its Kd is 0.247 nM.

Q: What about the Kd [6] of the same substance?
A: The Kd was 1.4 nM.

Q: And the Kd [7]?
A: The Kd was 2.1 nM.

Q: What about the IC50 [8] of the same substance?
A: Its IC50 is 20 nM.

Q: What about the cpm specifically bound [9] of the same substance?
A: The cpm specifically bound was 182000 cpm.

Q: What about the Kd [10] of the same substance?
A: The Kd was 1.6 nM.

Q: And the Kd [11]?
A: Its Kd is 1.8 nM.

Q: What about the Kd [12] of the same substance?
A: Its Kd is 1 nM.

Q: And the Kd [13]?
A: Its Kd is 0.394 nM.
